Measured values published in EP4585618A1 (Jiangsu Hengrui Pharmaceuticals Co., Ltd., dated 2025).
Changes are numbered by the printed parent chain.

B1: chimeric antibody ChP2-E8 (antibody, human IgG4 S228P, kappa, F234A L235A, V domains shown)
VH: EVQLLESGGGLVKPGGSLKLSCAASGFTFSDYGIHWVRQAPEKGLEWVAYISSGSSIINYADTVKGRFTISRDNAKNTLLLQMTSLRSEDTAMYYCARGPNYYGSSYLLVYWGQGTLVTVSS
VL: DIVMTQSHKFMSTSVGDRVSITCKASQDVNIAVAWYQQRPGQSPKLLIYSASYRYTGVPDRFTGSGSGTDFTFTISSVQAEDLAVYYCQQHYNIPWTFGGGTKLEIKR
notes: Murine variable regions with hIgG4(LALA) and CL constant regions; also called M P2-E8
B2: chimeric antibody ChP1-B9 (antibody, human IgG4 S228P, kappa, F234A L235A, V domains shown)
VH: QVQLKQSGPGLVQPSQSLSITCTVSGFSLTSYGVHWVRQSPGKGLEWLGVIWSGGNTDYNAAFMSRLRINKDNSKSQVFFKMNSLQGSDTAIYYCATPYDVVPFAYWGQGTLVTVSS
VL: B1 VL with R39K, Q42L, D60G, Q79K, N93S, W96F, G100A
notes: Murine variable regions with hIgG4(LALA) and CL constant regions; also called M P1-B9
B3: chimeric antibody ChP2-C6 (antibody, human IgG4 S228P, kappa, F234A L235A, V domains shown)
VH: EVQLQQSGPELVKPGASVKMSCEASGYTFTDYYIHWVKQSHGESLEWIGYIYPDNGYNGYNQKFKGKATLTVDKSSNTAYMELRSLTSEDSAVYFCTRRGDYSGVHFDYWGQGTALTVSS
VL: DIVLTQSPASLAVSLGQRATISCRASESVNNYGVGFLHWYQQKPGQPPKLLIYRASTLESGIPARFSGSGSRTDFTLTINPVETDDVATYYCQHSYKDPPWTFGGGTKLEIKR
notes: Murine variable regions with hIgG4(LALA) and CL constant regions; also called M P2-C6
B4: chimeric antibody ChP1-F7 (antibody, human IgG4 S228P, kappa, F234A L235A, V domains shown)
VH: DVQLQESGPGLVKPSQSLSLTCSVTGYSITSGYYWNWIRQFPGNKLEWMGYISYDGNNYYNPSLKNRISVTRDTSKNQFFLKLNSVTSEDTATYYCAREDGSYSDYDGFAYWGQGTLVTVSS
VL: DIQMTQSPASLSVSVGETVTITCRANENIYSNLAWYQQKQGKSPQLLVYAATNLADGVSSRFSGSGSGTQYSLRINSLQSEDFGSYYCQQFWGTPYTFGGGTKLEIKR
notes: Murine variable regions with hIgG4(LALA) and CL constant regions; also called M P1-F7
B5: chimeric antibody ChP2-F10 (antibody, human IgG4 S228P, kappa, F234A L235A, V domains shown)
VH: DVQLQESGPGLVKPSQSLSLTCSVTGYSIASGYYWNWIRQFPGNKLEWMGYITYDGSNNYNPSLKNRISITRDTSKNQFFLKLNSVTTEDTATYYCAREYSYGSTLSWFAYWGQGTLVTVSS
VL: B4 VL with V13I, N26S, S59P, R74K, Q90H, G93D
notes: Murine variable regions with hIgG4(LALA) and CL constant regions; also called M P2-F10
B6: chimeric antibody ChP1-G7 (antibody, human IgG4 S228P, kappa, F234A L235A, V domains shown)
VH: DVQLQESGPGLVKPSQSLSLTCSVTGYSITSGYYWNWIRQFPENKLEWMGYISYDGGNNYNPFLKNRISITRDTSKNQFFLNLNSVTIEDTATYYCAREGGSSWEYYGMDYWGQGTSVTVSS
VL: B4 VL with N26S, S31R, K42H, V48L, S59P, R74K, T94S
notes: Murine variable regions with hIgG4(LALA) and CL constant regions; also called M P1-G7
B7: chimeric antibody ChP2-C7 (antibody, human IgG4 S228P, kappa, F234A L235A, V domains shown)
VH: EVQLQQSGPELVKPGTSVKMSCKASGYTFTDYSMHWVRQSHGKSLEWIGYFNPNNGDTIYNQKFKGKATLTVNKSSSTAYMELRSLTSDDSAVYYCAREDSVSTNAWDGALDYWGQGTSVTVSS
VL: B4 VL with A25T, N26S, A50G, S59P, R74K, Q90H, G93D, T94I, Y96W, K103T
notes: Murine variable regions with hIgG4(LALA) and CL constant regions; also called M P2-C7
B8: chimeric antibody ChP2-E3 (antibody, human IgG4 S228P, kappa, F234A L235A, V domains shown)
VH: EVQLQQSGPELVKPGASVKISCKASGYTFTDYYMNWVKQSHGKSLEWIGDINPNNGGTSYNQKFKGKATLTVDKSSSTAYMELRSLTSEDSTVYYCARGGVTTVVATYWYFDVWGTGTTVTVSS
VL: B4 VL with N26S, L54V, S59P, S65G, R74K, G93D, Y96F, G100S
notes: Murine variable regions with hIgG4(LALA) and CL constant regions; also called M P2-E3
B9: chimeric antibody ChP2-G9 (antibody, human IgG4 S228P, kappa, F234A L235A, V domains shown)
VH: DVQLQESGPGLVKPSQSLSLACSVTGSSITSGYYWNWIRQFPGNKLEWMGYLSYDGSNNYNPSLKNRISITRDTSKSQFFLKLNSVTPEDTATYYCAREGAHYSGTLSWFAYWGQGTLVTVSS
VL: B4 VL with N26S, S59P, R74K, Q90H, G93D
notes: Murine variable regions with hIgG4(LALA) and CL constant regions; also called M P2-G9
B10: chimeric antibody ChP1-D10 (antibody, human IgG4 S228P, kappa, F234A L235A, V domains shown)
VH: QVQLKQSGPGLVQPSQSLSITCTVSGFSLTTYGVHWVRQSPGKGLEWLGVIWSGGNTDSNAAFISRLSISKDNSKSQVFFKMNNLQADDTAIYYCARYSYAMDYWGQGTSVTVSS
VL: DIVMTQSHKFMSTSVGDRVSITCKASQDVSNGVAWYQQKPGQSPKVLIYAASYRYTGVPDRFTGSGSGTDFTFTIGSVQAEDLALYYCQQHYSTPFTFGSGTMLEIKR
notes: Murine variable regions with hIgG4(LALA) and CL constant regions; also called M P1-D10
B11: humanized antibody huP1-G7 (antibody, human IgG4 S228P, kappa, F234A L235A, V domains shown)
VH: EVQLQESGPGLVKPSQTLSLTCTVSGYSITSGYYWNWIRQHPGKGLEWIGYISYDGGNNYNPFLKNRVTISRDTSKNQFSLKLSSVTAADTAVYYCAREGGSSWEYYGMDYWGQGTTVTVSS
VL: DIQMTQSPSSLSASVGDRVTITCRASENIYRNLAWYQQKPGKAPKLLLYAATNLADGVPSRFSGSGSGTDFTLTISSLQPEDFATYYCQQFWGSPYTFGGGTKVEIKR
notes: Full chains; also called P1-G7H1L1
B12: humanized antibody huP1-D7 (antibody, human IgG4 S228P, kappa, F234A L235A, V domains shown)
VH: EVQLVQSGAEVKKPGASVKVSCKASGYTFTTYGMNWVRQAPGQGLEWMGWINTYSGVPTYAEDFKGRVTMTTDTSTSTAYMELRSLRSDDTAVYYCARRTDYDGYVMDSWGQGTTVTVSS
VL: DIVMTQSPDSLAVSLGERATINCKSSQSLFYSGNQKNYLAWYQQKPGQSPKLLLYWASTRESGVPDRFSGSGSGTDFTLTISSLQAEDVAVYYCQQYFSYPPTFGGGTKVEIKR
notes: Full chains; also called P1-D7H1L1

Biological target: T1, His-tagged ILT4 protein extracellular domain: ILT4-His (human, UniProt Q8N423 22-460)
T1 construct: Expressed in 293 cells; also called human ILT4-His protein
T1 sequence (Q8N423 other isoform, or with tags, fused parts or gaps limits assumed): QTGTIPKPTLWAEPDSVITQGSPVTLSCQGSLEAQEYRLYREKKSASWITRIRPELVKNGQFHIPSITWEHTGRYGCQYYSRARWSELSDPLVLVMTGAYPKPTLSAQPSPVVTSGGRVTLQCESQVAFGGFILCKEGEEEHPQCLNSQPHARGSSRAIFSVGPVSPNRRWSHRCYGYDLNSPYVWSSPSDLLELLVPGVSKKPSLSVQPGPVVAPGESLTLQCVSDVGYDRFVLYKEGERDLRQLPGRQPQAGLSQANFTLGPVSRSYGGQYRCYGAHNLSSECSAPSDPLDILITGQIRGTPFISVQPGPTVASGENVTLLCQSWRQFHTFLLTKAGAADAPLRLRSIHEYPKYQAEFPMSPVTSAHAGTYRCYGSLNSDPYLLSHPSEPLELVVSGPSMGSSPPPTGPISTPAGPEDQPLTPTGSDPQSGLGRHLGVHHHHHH
Assay: screening of chimeric antibodies (ILT4 protein binding, cell binding, ILT4/HLA-G blocking)

binding result | Binder
binds | B1
binds | B2
binds | B3
binds | B4
binds | B5
binds | B6
binds | B7
binds | B8
binds | B9
binds | B10

Biological target: T1, His-tagged ILT4 protein extracellular …
Assay: SPR (Biacore), antibody captured on Protein A chip, ILT4-His as analyte, 1:1 model

Kd | koff | kon | Binder
0.158 nM | 7.2e-05 s⁻¹ | 457000 M⁻¹ s⁻¹ | B11
3.98 nM | 0.0103 s⁻¹ | 2.59e+06 M⁻¹ s⁻¹ | B12
